Results reported in IntAct's records for PubMed 19135897.

B1: Mitochondrial Rho GTPase (Drosophila melanogaster (Fruit fly)), Q8IMX7 (parent)
chain: MGQYTASQRKNVRILLVGDAGVGKTSLILSLVSEEYPEEVPPRAEEITIPANVTPEQVPTSIVDFSAVEQSEDALAAEINKAHVVCIVYAVDDDDTLDRITSHWLPLVRAKCNPSLDGEGDAEAEAEGDTQREPIRKPIVLVGNKIDLIEYSTMDSVLAIMEDYPEIESCVECSAKSLHNISEMFYYAQKAVLHPTSPLYMMEEQELTSACKKSLVRIFKICDIDGDNLLNDYELNLFQRRCFNTPLQPQILDEVKAVIQKNVPDGIYNDAVTLKGFLFLHCLFIQRGRNETTWAVLRRFGYNDQLEMCQEYLRPPLKIPPGSSTELSHRGQQFLIAVFERYDRDGDGALSPEEHKMLFSTCPAAPWSYSTDIRKSCPINETTGWVTLHGWLCRWTLMTLIDVVKTMEYLAYLGFNVHENDSQLAAIHVTRERRIDLAKRQSSRSVYKCHVIGPKGSGKTGMCRGFLVEDMHKLIGKEFKTNVVNCINSVQVYGQEKHLILRDIDVRHALDPLQPQEVNCDVACLVYDSSNPRSFEYVARIYIKYYAESKIPVMIVGTKCDMDERRQDYLMQPSEFCDKYKLLPPHLFSLKTNKKELYTKLATMAAFPHLRQFGLMTEDPKLWLKAGLGVAAATMLGFIVLKTISAAGAHTR
B2: Mitochondrial Rho GTPase 1 (Homo sapiens), Q8IXI2 (parent)
chain: MKKDVRILLVGEPRVGKTSLIMSLVSEEFPEEVPPRAEEITIPADVTPERVPTHIVDYSEAEQSDEQLHQEISQANVICIVYAVNNKHSIDKVTSRWIPLINERTDKDSRLPLILVGNKSDLVEYSSMETILPIMNQYTEIETCVECSAKNLKNISELFYYAQKAVLHPTGPLYCPEEKEMKPACIKALTRIFKISDQDNDGTLNDAELNFFQRICFNTPLAPQALEDVKNVVRKHISDGVADSGLTLKGFLFLHTLFIQRGRHETTWTVLRRFGYDDDLDLTPEYLFPLLKIPPDCTTELNHHAYLFLQSTFDKHDLDRDCALSPDELKDLFKVFPYIPWGPDVNNTVCTNERGWITYQGFLSQWTLTTYLDVQRCLEYLGYLGYSILTEQESQASAVTVTRDKKIDLQKKQTQRNVFRCNVIGVKNCGKSGVLQALLGRNLMRQKKIREDHKSYYAINTVYVYGQEKYLLLHDISESEFLTEAEIICDVVCLVYDVSNPKSFEYCARIFKQHFMDSRIPCLIVAAKSDLHEVKQEYSISPTDFCRKHKMPPPQAFTCNTADAPSKDIFVKLTTMAMYPHVTQADLKSSTFWLRASFGATVFAVLGFAMYKALLKQR

Experiments:
kinh_rat Kif5b, Q2PQA9 = variants of: B1; conditions: with kinh_rat Kif5b
kif5c_rat Kif5c, P56536 [1] = variants of: B2; conditions: with kif5c_rat Kif5c
kif5c_rat Kif5c, P56536 [2] = variants of: B2; conditions: with kif5c_rat Kif5c; remark: listed apart in the source
[3] = variants of: B2; conditions: with kif5c_human KIF5C

Chain of kif5c_rat Kif5c, P56536 (P56536 whole entry): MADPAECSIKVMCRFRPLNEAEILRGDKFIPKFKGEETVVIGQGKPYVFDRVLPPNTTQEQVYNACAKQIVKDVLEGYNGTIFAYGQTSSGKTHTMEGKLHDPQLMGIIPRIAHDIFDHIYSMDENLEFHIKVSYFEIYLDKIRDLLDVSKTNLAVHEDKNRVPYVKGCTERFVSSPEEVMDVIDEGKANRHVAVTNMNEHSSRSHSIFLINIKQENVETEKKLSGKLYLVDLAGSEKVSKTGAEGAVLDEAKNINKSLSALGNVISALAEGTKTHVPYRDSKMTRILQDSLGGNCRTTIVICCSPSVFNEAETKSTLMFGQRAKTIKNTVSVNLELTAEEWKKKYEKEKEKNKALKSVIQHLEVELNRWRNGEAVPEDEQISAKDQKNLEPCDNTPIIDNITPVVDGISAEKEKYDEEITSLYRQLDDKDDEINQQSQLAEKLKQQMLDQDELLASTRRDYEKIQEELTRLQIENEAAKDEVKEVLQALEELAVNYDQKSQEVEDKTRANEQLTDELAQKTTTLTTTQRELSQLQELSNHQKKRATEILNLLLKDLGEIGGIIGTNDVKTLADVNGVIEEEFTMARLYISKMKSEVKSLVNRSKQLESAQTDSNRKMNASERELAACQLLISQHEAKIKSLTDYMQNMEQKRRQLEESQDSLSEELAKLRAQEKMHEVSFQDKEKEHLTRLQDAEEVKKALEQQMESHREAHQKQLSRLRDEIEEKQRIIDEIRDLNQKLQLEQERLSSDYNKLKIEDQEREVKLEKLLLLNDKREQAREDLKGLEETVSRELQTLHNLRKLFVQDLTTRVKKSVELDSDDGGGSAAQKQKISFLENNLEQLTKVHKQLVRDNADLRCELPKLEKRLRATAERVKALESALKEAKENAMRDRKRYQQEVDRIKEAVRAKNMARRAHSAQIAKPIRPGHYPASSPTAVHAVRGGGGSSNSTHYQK
Chain of kinh_rat Kif5b, Q2PQA9 (Q2PQA9 whole entry): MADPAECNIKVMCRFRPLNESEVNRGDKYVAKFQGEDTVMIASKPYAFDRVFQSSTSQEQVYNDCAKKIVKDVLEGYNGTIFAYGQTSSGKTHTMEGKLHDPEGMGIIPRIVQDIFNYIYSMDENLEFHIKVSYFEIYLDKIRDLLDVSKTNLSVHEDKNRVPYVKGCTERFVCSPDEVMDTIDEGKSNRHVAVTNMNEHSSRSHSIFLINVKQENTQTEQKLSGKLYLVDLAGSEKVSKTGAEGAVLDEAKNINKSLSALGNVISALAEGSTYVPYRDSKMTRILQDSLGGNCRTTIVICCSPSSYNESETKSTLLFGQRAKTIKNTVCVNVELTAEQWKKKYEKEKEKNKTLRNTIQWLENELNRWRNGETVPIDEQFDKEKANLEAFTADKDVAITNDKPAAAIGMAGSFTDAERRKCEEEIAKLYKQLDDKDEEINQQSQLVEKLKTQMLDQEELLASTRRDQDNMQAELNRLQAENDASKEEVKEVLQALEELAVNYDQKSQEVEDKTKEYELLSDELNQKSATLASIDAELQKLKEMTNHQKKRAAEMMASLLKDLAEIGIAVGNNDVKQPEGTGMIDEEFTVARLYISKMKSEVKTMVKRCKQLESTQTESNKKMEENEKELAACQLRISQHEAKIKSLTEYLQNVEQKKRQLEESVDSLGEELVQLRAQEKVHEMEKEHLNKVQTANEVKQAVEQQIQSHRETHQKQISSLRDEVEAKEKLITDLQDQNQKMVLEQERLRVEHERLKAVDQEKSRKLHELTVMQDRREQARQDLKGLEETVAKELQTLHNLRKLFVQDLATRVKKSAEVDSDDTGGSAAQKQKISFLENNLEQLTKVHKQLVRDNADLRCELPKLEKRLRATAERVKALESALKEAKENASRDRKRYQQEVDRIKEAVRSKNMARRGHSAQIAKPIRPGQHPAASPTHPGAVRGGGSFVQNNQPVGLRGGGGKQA

| effect of a mutation on the interaction (kinh_rat Kif5b, Q2PQA9) | effect of a mutation on the interaction (kif5c_rat Kif5c, P56536 [1]) | effect of a mutation on the interaction (kif5c_rat Kif5c, P56536 [2]) | effect of a mutation on the interaction [3] | Variant |
| --- | --- | --- | --- | --- |
| decreasing interaction | – | – | – | E234K;D345K |
| – | decreasing interaction | decreasing interaction | decreasing interaction strength | E208K;E328K |
